69 sequences from the domain aggregation screens of Martell et al. (2025) can be followed below.

This data set in a line: soluble fraction after stress (log2 fold change); higher = more stays soluble; pooled small domains, quantitative proteomics. To be noted: stress: 50 degC. The method, boiled down: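 The measure of aggregation propensity here is the base-two logarithm of the fold change in the soluble amount of each protein after stress. A higher value means more of that protein stays in solution. Stress was applied at 50°C to pooled libraries of small protein domains, read out by high-throughput quantitative proteomics.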

Consider “HMNMYTVTGRLVDQDGVPQANALVTIDSSSQQTRTSPQGFYLIKVFGTEPSTIKFLVDGYDPQIVNFTP”, for which the “soluble fraction (log2)” value is -0.21. On to “HMETLSVRERMTSIISLLNKHEDIEFSKLFNISEGRLGVVVTFLALLELVKESLVDVIQNQPMSKLYIGKK”, for which the “soluble fraction (log2)” value was -0.311. “HMKKMEEEFALFNAWVDRRLGIPLAAYKENQMQRRILTIMENSGAKTLREYQQLIEGDEGVRAAFLAHIT”: the “soluble fraction (log2)” value was -1.1. As to “HMLGYQALASAFRSKVEAGIWPIGEAIPSEARLSKEYGVAVGTIRQAIAELAEEGILIKRHGKSTMVSSG”, the “soluble fraction (log2)” value was -0.873. As to “HMVPAMGSLTLIKGGVNLRNAPGGLTIAQLDRGLVLSYTKFVQKDGYTWYLVNSPKGTGYVRSDVVQLGS”, the “soluble fraction (log2)” value is -0.251.

“HMGDVSGFLRGVLADGPVPAKTVFSEASGAGYSRDQIQRAARKIGVERRKTGMAGGWVWELEP”: the “soluble fraction (log2)” value stood at 0.014. To “HMRDLTARQQQILALIRQHIADTGFPPTRAEIAAQLGFRSPNAAEEHLKALARKGVIELASGASRGIRLK” belongs -0.16; to “HMETFNMTQKEITRLRVINQAIDKVITIREAAELLGLSERQVIRLKGGVEKFGPAFIIHKNRGRKP”, -0.71. Take “HMKKKVDSENLLLDILKQMQPQASTNVLRKMLTNQRISVDDQIIHRAKHVVQEGQTVEIHPKP”: the “soluble fraction (log2)” value stood at 0.00763. For the sequence “HMWNGIVDAGKARQHLMNLSQLGVGRRAVAAASDVAETVLMDIRSGTKTRIRARTERQILAVTPEMA”, the “soluble fraction (log2)” value is -2.23.

In the case of “HMQNEIQQLAIDLIARAHKSGASDIHIVDTGTYTRIKFRVLGLLREDSQMEAETGRQMISTIYGILG”, the “soluble fraction (log2)” value was -0.135. Consider “HMATINGIEKYLSSGLIPGIGPHTAKKLVEKFGLDTLDIMQYNPDRLTEVEGIGDKKAAKISEAFQEQK”, for which the “soluble fraction (log2)” value is 0.0735. As to “HMEVTYQETLRVLYNAIDKLPPQTKEIILIGLDGKDNNEIAATLNISVNTVKTLKKNAYKTLRELLVD”, the “soluble fraction (log2)” value was -0.157. To “HMATYDIDALKVDLPSAKELAQFVYDKTDGLVSLDLIGKPKEEQYIVAKNALEGKKVPAEYLTGFNPY” belongs 0.202. On to “HMGKAPREVQVGELLRVPALNAEGEVLRRDGESVELSIQGKKLRLPLAQLEAFSPRRFARRGEGKVRGRIE”, for which the “soluble fraction (log2)” value stood at 0.432. To “HMDTIAEFIAELTPLEQKVFHVYYEKGQSLKDTAQQAEITSTSARGALDRIRAKGRHFHLAVILFIG” belongs -0.622. In the case of “HMGNKDAQLVHLAKMNEIQIELMKTGRGYMVTDQNVYNLAKKMGENMGFKHPDLFLTDPAKV”, the “soluble fraction (log2)” value is -0.0553. Turning to “HMGMSKQKQSSLVRIIMQEISDANEGRMKMSQIIDAALIKGISDSTVRSVISRLSTTGAIYEPQTGTYEW”, the “soluble fraction (log2)” value is -0.643.

Consider “HMRMLLEERLDEIVKIVNERGSISNQELVKMFGASESTIRRDITTLANDNRVIRVHGGAMSVVS”, for which the “soluble fraction (log2)” value is -0.0564. Turning to “HMQVAPQVERLLRVMGNETLSLSDIMGRMGLSDKKNFRESYLVPALRSAVIEMTIPDKPNSSLQKYRRIHE”, the “soluble fraction (log2)” value is -0.176. Turning to “HMEKIKNLTVTEFNLIANKNPSGSYDRITREALLHIIHKLESSYEAHTDLERKLFYKFRKAKFNAL”, the “soluble fraction (log2)” value is -1.91. On to “HMVDEAQSLERNVLLTVLSRIGRDSRVVLTHDIAQRDNLRVGRHDGVVAVVDRLKGHPLFAHVTL”, for which the “soluble fraction (log2)” value turned out to be 0.012. For “HMDEPADVAIFDGFRQMSEDELKKLYESLNLAMTFKDFLHIQNYFKNEENREPSVTEIRVLDTYWSDH”, the “soluble fraction (log2)” value was determined as 0.174. To “HMSEYILATNDGEFLRITSYSKEEGGMLVWEKTSSIVSAEHKVIPYSQIINIKDRNGDVVWDKD” belongs -0.346.

Take “HMGSAKAQLYDLMNAHQVTRNQIQDIVAEKGYFPAGTPIENYPDDFVKGVLVGAWDQVHKAILDKEI”: the “soluble fraction (log2)” value stood at 0.0946. Consider “HMASDYYTTTANLNLRSGAGTTYGSLIIIEKGDTVKLLENVNDHWVKIQYDDKIGYVAMSYLLPIE”, for which the “soluble fraction (log2)” value was -0.484. To “HMNAQLTTIPDLDGMNMRAATAMLSSLGLEVKRIGSGTVFAQFPKAGAAMRPGSMVTIRGKAKSL” belongs -0.355. As for “HMAVNDPDEKFIELGIPADWVQVVRKAGFQTVEALKTVENPNKLHQELSGLNKKMKLGLKTLSQDEVKDWF”, the “soluble fraction (log2)” value came to 0.215. “HMDKGEQILQQALDKLPPKQRQVFEMRYFDEMPYREIATITETSEGALKASYHHAVKKIQQYISHL”: the “soluble fraction (log2)” value was -0.397. To “HMTPVIINESGGDQDTRIEGLNDNNLLYVDASTDRVGVGVATPTQKLDVNGDVAISGGSLYLSQ” belongs -0.00396. As for “HMKLVELVGSPKQIAWAEDIRKNMISYLSALVRKYEAENRPARAEKRAKDMEILSNIKEASWFIENRS”, the “soluble fraction (log2)” value is -0.661. Consider “HMENPMIEQLKQFIEAQGLTQGQLAAKLGVSTATVNQYLQGKYKGDTAALDAKAAQLMARSREK”, for which the “soluble fraction (log2)” value was found to be 0.103.

Take “HMGGEIGSGKNGYVAFYKGKKVDVKADSMYGAQKTAAKYFNAKKEYDVNVVLAEVDGKQYVQS”: the “soluble fraction (log2)” value was 0.343. Take “HMAGQWQQDQNGWKYKTDNGDHMKNTWYQDSDSRWYYFGPDGYMKSSTMTPDGYVVGSDGAWIE”: the “soluble fraction (log2)” value was -0.518. To “HMFQPEQISKLNELETLVLDFIIKSPDKVQKATIRSLATQLHVSTTTIVRMSTKLGFNGWSELKFFLKNQS” belongs -2.15; to “HMLAIELDDKPGSLLRALEIFAKRNLNIEYMYAFTEKRGDKAVMIFKFSDIETAKKSLLEEGFN”, -1.64; to “HMITLYDLLGVSKTASSQEIKTAFKKKALQYHPDKNDGNPDKEEIFKRINMAYQVLGQPQSRANYDFSITP”, -0.321. Take “HMKRITKKELKQAIVDVFADKPGQSFNYKQLATIIGIKDDPTRRMITDILYELVQEERIVELYRGKFKMEM”: the “soluble fraction (log2)” value is -0.66. For the sequence “HMSAAMTESVLDGIPGLGATRKAALLAHFGSVRKLRAATSEQVREVPGIGPRLAETILATLHEP”, the “soluble fraction (log2)” value is -0.181. As to “HMLNEIMDTINKYISDKRNNKVAQNILSAALDELNSQIRVGLKDLNPHSIEEFKENVINSPYIEFEQG”, the “soluble fraction (log2)” value was 0.046. To “HMLEDYFKEEEYTEVLKIPKEYIKGFQYYLIEDAEFVNALRAKNKTMTLFLAKKLASDYIEIIRREQ” belongs -0.208; to “HMLEIGRYNTLTVLRKVDFGYYLDGLDYGDILMPAKYAATELEAGDEVDVFIYLDSSEKLIATTETPIAQ”, -3.38; to “HMGKRRGLKVAEEVFADRGYNPDGTLVNRSLPGAFVKDPDEAIARVIKMVKTKKVTAVNGEEIDIAADSI”, 0.132. In the case of “HMSTLTLTSGTYAVGENIKAGKYTIMGSGSIAISSSGKARVNSNLTADRKDYVLNDDETIKIKGKAQFIPI”, the “soluble fraction (log2)” value worked out at 0.11. For the sequence “HMSNYFIEISKDSLARINDEIELDVLRETSDTIIISQEEKTNTISSFIKVLFERQIDILSIQNR”, the “soluble fraction (log2)” value was found to be 0.000151. “HMKRWHVGDPIDALTAAGKVPSWSTIRQRFWKTIAALYPDIEQSERLQRGLAMLDEAGTSIELHHP”: the “soluble fraction (log2)” value was -1.01. Take “HMRYEESVTLGERLLNQSLVALKADNIDDALWERFLREEAGEKSRQEILSDIGLGKRLPVVVAKRLLAPS”: the “soluble fraction (log2)” value turned out to be 0.0281. In the case of “HMDDAFLNKEMLKQALENLNEREKKLIYLRFYEGLTQKEIADRLSLSQMHVSRLLNESLNKLRRKI”, the “soluble fraction (log2)” value was -0.245. Regarding “HMAKTALEQAQAMVAAYVAAEQQILLGKEVRMGGPGIDRWLRFEDLQEVRAGRKEWESTVTRLQNTAA”, the “soluble fraction (log2)” value was -0.404. In the case of “HMEAAIRNALSRVENPDETQRARIYRTAHDALIRNLENRGITDPEQVRPQVSRLKDLISVIEREYHG”, the “soluble fraction (log2)” value was -0.0521. With “HMEEPLIISIDSNGAVYLEVDSFKDQSIEMSSLREIIEKIILANPDIQVVVRGDSEVKYEKVMDLMSILQS”, the “soluble fraction (log2)” value was -1.29. As to “HMTIKTAFPAEDLAKPDNFKSLLYYFGLLTIRGTKWGSTLLAIPNLTVREQLYSYLVEAYRSADL”, the “soluble fraction (log2)” value worked out at 0.291. For the sequence “HMAKETLRANIKDYIQKQIASGVYRPGDRIVETQLAREMNVSQAPVREAILELVSLGLLEERPYSGHMVRQ”, the “soluble fraction (log2)” value was 0.178. In the case of “HMVEVPYSEFLKELDAGNVKDVYVSNGESQIQFTKKDQKQWNLSYKTGPIPGDDLVKRLQNADVENFT”, the “soluble fraction (log2)” value stood at 0.0879. As for “HMLQLSDAISRVESFLQGQNRNLAFSIDENTERSVVTVLDSDTGDVIRQIPSEELLVLAKRIQELQQD”, the “soluble fraction (log2)” value came out at 0.151. For “HMAVPMTPGELVGSRVRVLWWKDGRGEVVALARGHQATLPARSEEPLRTGADAVVLEADEGTLVVTS”, the “soluble fraction (log2)” value was -0.0203. For the sequence “HMEVPQVETEKVEAKLKEAEVLLVKVTDSSLKANATETLAGLRNNLTLQTMDNNGIMAEAEKLLALLRES”, the “soluble fraction (log2)” value amounted to 0.0393. With “HMKHYMKITDISLQTRDKNRVNVSVDGKYRFSLDVFQVGELGLKVGREYTDEELTALEDESQFG”, the “soluble fraction (log2)” value is -1.41. For the sequence “HMNGNLRAQVLELMGRADYEPLNKSELSRKLDLQGSDRSSLRILMDELERDHSVVRLKKGRFALKVV”, the “soluble fraction (log2)” value was -0.853. For “HMRIETLESLANRLAYKAYRTGRKVELEPMNPFERRVIHTALQNSKYATTESEGEDMNRHIVIVPKEGG”, the “soluble fraction (log2)” value is -0.0606. As for “HMADGKWTLTDAGYTFTYSDGRKARGTWEDIDGEWYHFDRNGIMETGWKTVGNIRYHFNQDGSL”, the “soluble fraction (log2)” value is -0.185.

On to “HMDIEFSDELRTFIDEWSKKEGGLVMMLHRIQNEYGFIPRTAAEKLSLISGIPLARIYGVITFYHFFKT”, for which the “soluble fraction (log2)” value was -0.461. As to “HMANTSAVIKQPGLVKLFAQHFVRNGFNAMKAAEAAGFVRPSPTFVRNLADSKPVKDAISELLGPYNDA”, the “soluble fraction (log2)” value was -0.0131. In the case of “HMSRREEALIALAQRVARQVARTKQPVTLEPMPANERRVIHVALRDNPDVETRSSGEGDQRRVTVYPRQ”, the “soluble fraction (log2)” value came out at 0.05. Take “HMLKKRKPMSGVGVIVKGMLTGTVTGTDGSYALKARPNDELSFSFLGYKTQEVFVGSKSTIDITLVDEA”: the “soluble fraction (log2)” value is -0.13.

Consider “HMWSQEPEYRPLYNSMDGFDAGQVVEMLQQSRIDYKVEPNSGALLVRSEDLADARLRLASAGISP”, for which the “soluble fraction (log2)” value was -0.0156. Consider “HMAAELQALSVRELEVLDQLAGGASNREIAQRLYISENTVRNHVHSILTKLKLQNRTQLVGMT”, for which the “soluble fraction (log2)” value is -0.239. Regarding “HMERVNILEKATKDIPNVEVKAFEGLSVNFARENHAQVIVRGLRAVTDFEYELQMAQTNRVLAPDVDTVF”, the “soluble fraction (log2)” value worked out at 0.124. In the case of “HMGRAAEETETFRTQGELDARIKELQGQMRDAAANLEFERAAGLRDTLKRLRTRGLGLSASP”, the “soluble fraction (log2)” value was found to be 0.0346.
